A protein production outcome set (Wang et al. 2014)

Test: label from the status in PepcDB records

Question: For “MRVVVISSFVSVSLQLSFLLLLASAIRSSSSPPNDPFLGISPQDEKYYKSSSEIKCKDGSKKFTKAQLNDDFCDCSDGTDEPGTSACPTGKFYCRNAGHSPVILFSSRVNDGICDCCDGSDEYDGHVSCQNTCWEAGKAARENLKKKIETYNQGLVIRRQEIEQAKVGLEKDAAELKKLKSEQKILKGLVDQLKDRKEQIEKVEEKERLQKEKEEKEKKEAELAAQQGKGDAEEKTDDSEKVEESSHDEGTPAVSQHDETTHHDEIGNYKDYPSDEEPAAEGEPTSILDEATHTNPADEHVVERKEESTSSEDSSSPTDESQNDGSAEKEESDEVKKVEDFVTEKKEELSKEELGRLVASRWTGEKSDKPTEADDIPKADDQENHEHTPITAHEADEDDGFVSDGDEDTSDDGKYSDHEPEDDSYEEEYRHDSSSSYKSDADDDVDFSETTSNPTWLEKIQKTVKNILLAVNLFQTTPVDKSEADRVRKEYDESSSKLNKIQSRISSLEKKLKQDFGPEKEFYSFHGRCFESKQGKYTYKVCAYKEATQEEGYSKTRLGEWDKFENSYQFMSYTNGEKCWNGPDRSLKVKLRCGLKNELMDVDEPSRCEYAAILSTPARCLEDKLKELQQKLEKLMNQDKPQNHDEL”, which protein production is on record?
Answer: The protein production was “failed”.

Question: With “MRWNICVVGAGKIGQMIAALLKTSSNYSVTVADHDLAALAVLNRMGVATKQVDAKDEAGLAKALGGFDAVISAAPFFLTPIIAKAAKAAGAHYFDLTEDVAATNAVRALAEDSQTAFMPQCGLAPGFVGIAGAALAAEFDEIDSLHMRVGALPLYPTNALKYNLTWSTDG” as the sequence, how does the protein production read?
Answer: Its protein production is “failed”.

Question: For “MRYGFMKVAAAVPFVKVADCEYNIERIDRMVHEADAKGVEIMTFPELSITGYSCGDLFFQPFLQERANEALCRLVEQTANTTVMVIVGMPLRVEEKLFNSAVVFQQGKILGAIPKTYLPNYREFQEARWFSPAHTLQYSTISIGQHSVPIGRNLIFKCGTVGVGIEICEDMWTPFTPGTRLCLYGAEVIFNLSSSNENAGKHSYLRSLISGLSSQGICAYVYASSGYGESSTDIVFTGKAFIAEAGEIVEEMERFRYEERMIISDIDVSRIQTERLINSSFKA”, which protein production is on record?
Answer: The protein production was “failed”.

Question: Which protein production does the source give for “MRYSIYLCILFVLSILSCNSKQEDRVIESFYVRKDDLGRNVSISVNPKRILSLTPSITELVYTFSDTSRLIGRSVWCDYPAGVKVIPAVNNYPLDIEGVVRLKPDLILVKQGMISVQELDKLEQLHLAVYVQKYDLLNEIYASTKTLVEITKGDSATYKHWLTSMQSDTMHTSVQHAKTCLAVTSVSPIYVFGKTTFVSELIEQAGGKNCVETIQSAYPTVDVEYILRANPDVFIFNSTDQQKLFFETYPLLKQCKGYITNQLFVIDDSIMSRPGIRLPILKDSLVSILSK” here?
Answer: The protein production was “failed”.

Question: For “MSAALPSIQLPVDYNNLFNEITDFLVTFKQDTLSSDATRNENEDENLDAENIEQHLLEKGPKYMAMLQKVANRELNSVIIDLDDILQYQNEKFLQGTQADDLVSAIQQNANHFTELFCRAIDNNMPLPTKEIDYKDDVLDVILNQRRLRNERMLSDRTNEIRSENLMDTTMDPPSSMNDALREVVEDETELFPPNLTRRYFLYFKPLSQNCARRYRKKAISSKPLSVRQIKGDFLGQLITVRGIITRVSDVKPAVEVIAYTCDQCGYEVFQEVNSRTFTPLSECTSEECSQNQTKGQLFMSTRASKFSAFQECKIQELSQQVPVGHIPRSLNIHVNGTLVRSLSPGDIVDVTGIFLPAPYTGFKALKAGLLTETYLEAQFVRQHKKKFASFSLTSDVEERVMELITSGDVYNRLAKSIAPEIYGNLDVKKALLLLLVGGVDKRVGDGMKIRGDINVCLMGDPGVAKSQLLKAICKISPRGVYTTGKGSSGVGLTAAVMKDPVTDEMILEGGALVLADNGICCIDEFDKMDESDRTAIHEVMEQQTISISKAVINTNPGARTSILAAANPLYGRINPRLSPLDNINLPAALLSRFDILFLMLDIPSRDDDEKLAEHVTYVHMHNKQPDLDFTPVEPSKMREYIAYAKTKRPVMSEAVNDYVVQAYIRLRQDSKREMDSKFSFGQATPRTLLGIIRLSQALAKLRLADMVDIDDVEEALRLVRVSKESLYQETNKSKEDESPTTKIFTIIKKMLQETGKNTLSYENIVKTVRLRGFTMLQLSNCIQEYSYLNVWHLINEGNTLKFVDDGTMDTDQEDSLVSTPKLAPQTTASANVSAQDSDIDLQDA”, which protein production is on record?
Answer: The protein production was “failed”.

Question: For “MSADLKQSRLADWRQRALAFEREVGKAVIGLERPIRHILIAVFARGHVMLEGDVGVGKTTLLRAVARCLGGAYERVEGTIDLMPNDLVYHTYINELGKPQVEPGPVLKHGEELSVFFFNEVNRARPQVHSLLLRIMAEHAVSAFNREHFFPYLQVFADRNRVEKEETFEIPSAARDRFMMELHVETPADPALRRALMFDPKFHDVDRLLDTLTPGILPYREIPQIAPVIQQSVTASETLQQYALDLWEATRRPADYGVKLEGIDMDRLILAGASARGVSMMMRAARVAAWLDGRDYLVPEDIHDVFRETIGHRVFFNPVYELRRTALIDELLHAIRQKVAAPLEHHHHHH”, which protein production is on record?
Answer: The protein production was “not failed”.

Question: Which protein production does the source give for “MSAFQAFVVNKTETEFTAGVQTISMDDLPEGDVLVRVHYSSVNYKDGLASIPDGKIVKTYPFVPGIDLAGVVVSSQHPRFREGDEVIATGYEIGVTHFGGYSEYARLHGEWLVPLPKGLTLKEAMAIGTAGFTAALSIHRLEEHGLTPERGPVLVTGATGGVGSLAVSMLAKRGYTVEASTGKAAEHDYLRVLGAKEVLAREDVMAERIRPLDKQRWAAAVDPVGGRTLATVLSRMRYGGAVAVSGLTGGAEVPTTVHPFILRGVSLLGIDSVYCPMDLRLRIWERLAGDLKPDLERIAQEISLAELPQALKRILRGELRGRTVVRLA” here?
Answer: Its protein production is “not failed”.

Question: For “MSAHPLAQLETFKHTSKQWNQLREAANMSNRMEHILQAMPSGVVILNGDGIVTDANPVAVELLEQSLCGARWIDVIHTAFAPQDDDGHEVSLRNGRRVKLAITPLTPEPGQLIVLTDLTETRLLQKNLSHLQRLSALGKMVATLAHQVRTPLSAALLYAANLASPKLSDSAKVKFQQKLVDRLNELERQVNDMLLMAKGRQDELGELINLNDVIENVVANCEPIVAKHGAELTVTNASNGLMLANVNALSSAVNNLVMNSLEAGATQIQLVANEIDDQLHLNVVDNGKGLDAKMQQRVLEPFFTTKAQGTGLGLAVVQSVVRNHGGQLQLNCMPNKGCTVSLTFPQAKSATVLPLEKSHV”, which protein production is on record?
Answer: Its protein production is “failed”.

Question: With “MSAIDCIITAAGLSSRMGQWKMMLPWEQGTILDTSIKNALQFCSRIILVTGYRGNELHERYANQSNITIIHNPDYAQGLLTSVKAAVPAVQTEHCFLTHGDMPTLTIDIFRKIWSLRNDGAILPLHNGIPGHPILVSKPCLMQAIQRPNVTNMRQALLMGDHYSVEIENAEIILDIDTPDDFITAKERYTEILEHHHHHH” as the sequence, how does the protein production read?
Answer: Its protein production is “not failed”.

Question: With “MSAKIVTVFNQKGGCGKTTVSMHIAGTLGVRGSKTLLVDMDEQGTATRWAAQAPEEKPFPASVIGLAPSGGAMHREVRKFIADYDYIVVDCPPAVHSPASSSALLISDIAIIPVVPSPPDLWAAVAAKALAQQAQVTNETLRVRVLANMVQRRVSLAKQAIEILGDDGDIPLMESMIGSRSAFRECQAIGATVHGVPGAREAINEVDIMVNEVLQLLREGQA” as the sequence, how does the protein production read?
Answer: Its protein production is “failed”.

Question: Which protein production does the source give for “MSAKSPTPQPPYEIPSFRKRRLITTGLLTITTLWFIYFYVDLVSATTLLTLPVIIAAPLIMVYIWYHEFTYYARVRKNNKLYKALYGHLQNHQHPENTDTPPM” here?
Answer: The protein production was “failed”.

Question: With “MSALDCPAGTVLFRAGQDCPGFLRLDEGSIRVTLTAANGREVVLYRVRPGDVCLQTFACLTEGRSYSAEGVAETRVRGHLMSHADFRTALARDEAFRTEVMQAVARRFADFEHLVEDVALTGFDTRLARVLLRLAKGDTVAATHEALAAETASGRAFVSRRLAEFARQGLVELARGRVTLCDRSGLERIAAEER” as the sequence, how does the protein production read?
Answer: Its protein production is “not failed”.

Question: For “MSALFLMKTLGLFIATAIAEIVGCYLPYLWLKEGHSVWLLIPAAVSLALFAYLLTLHPAESGRVYAAYGGIYVLTAIVWLRIVDKSPLSNFDLIGTAFVLTGMGILVYGWR”, which protein production is on record?
Answer: The protein production was “failed”.

Question: Which protein production does the source give for “MSALLGILGVVLDARFGEPQGWHPLVAFGRLADRLERRFNRSRLAGEADPGVGWRSHGVTAWVLAVLPLTLLAWALAELPYLGWLVQALALYAALGLRSLGEHAEPVALALRAGDLDEARRRVGYLVSRDTRELDQAGVARAATESVLENGSDAVYAALFWFAVAGAPGVVLYRLSNTLDAMWGYRNARFERFGWAAAKIDDILNYLPARLVALTYALLGDTRQALRCWREQAPQWDSPNAGPVMAAGAGALGVFLGGAAIYHGELHQRPLLGSGPQPQGRDIYRALALVRQGVLLWLLVLAGLWAMGWLHA” here?
Answer: Its protein production is “failed”.

Question: For “MSALPSYTQNGQTITFAFAQPLQLTIVTPEIIRVFINRGEQGESYAIEGHKIQATDFTIESAGDHYIIRTSALTIHLDSERHLDTFDKDGNALITDYRGERIHLKGVDKVHERLVEAEGHSVTKAPTKSDQGYYEIIKSLAPDEYLYGLGDKTGYLNKRGFAYDNWNVDNPAPQLEILPNIYKSIPVMLGLKNGHPYGIFFDNTYQSHLDMGKESNHYYFYSAVQGNLDYYIIGGTTLKDIVTNYTYLTGRTPLPQKWTLGYQQSRWGYSASQEEVQAIADNLAKYDLPCDAIHFDVDYMDGYRVFTWDKDKYQGNPKKFITKLNQQGLKVIPIIDPGVKQDSDYHIYAEGLKKGYFVKSADGDVYINKVWPGNAAFPDFGRPEVRQWWANNGKFLTDLGVAGIWIDMNEPATFEGPIPDDVVFNDQDTPSTHKKMHNVYGHNMAKATYAGLKEQTGNRPFVITRAAYAGTQKYSTVWTGDNRSMWPHIQMMIPQLCNLGLSGFSFTGTDIGGFASDTTSELLTRWIEGAIFSPLLRNHAALGTRQQEPWAFGEPTLNIYRKYLKLRYRLIPYLYDLFAKETKTGLPIMRPVVLNYDQDPRVRDLNDEYMVGDDILVAPVVQKSQFKRLVYLPAGNWVDFWNGAEYAGNQDIVVDTPLDKLPLFVKQNTILPWGPAVSHISDEPLKAMTFRVFGTQGTYQHYQDNGRDFKYQSGEWNNYTITVDHNKVNVQLTHHGYQPVYQQITVELSDHVVKLTYDNDSSCYRE”, which protein production is on record?
Answer: The protein production was “failed”.

Question: For “MSANPDRFLGRAEVYAAARPDYPPALGNELARRGLLRGQVADLGAGTGLFTRLLLQRGAQVIAVEPNPEMREQLLRALAAEVTRGQLRVQSGTAEATGLPGSSVDLLTAAQAAHWFDPAPTRREFQRVLRPGGQVLFVWNDWREADGPFNEAYGAVVAHFSPEEGRVRTRVPRDELAQWFSGAPEELSFDHPLTFTRERLHALAGSVSYLPAPGSERFPELLARLDQAFDRQARQDTVELTYRTFAFLGRV”, which protein production is on record?
Answer: Its protein production is “failed”.

Question: Which protein production does the source give for “MSAPAPRSPAGGHEARATARALTLLAIGAGFGFLWLARDLLVPTALGVTLALSVHPVVAALQRRRVSRTVASVAGTLLAVAVLVGIGYVLWGRIAAFADELPGYEGRLREAAAGIRRHAAHLQAQSEQLVQAPRRPGEVKVQEGVPWGSLLVGTAQGALTFAGQATVVVFVLYFTLAEGPRFRTKLLAWADRRPRGRARVLAALEELHRDVEQYMLNRVALNAALGVVTWAVYALYGLEHAAIWGITTALLHFIPYVGPALGLFLPAAMALLQYGTAKDVALVTAIYLVLVNVQGNVVDPLFLGKQLRLSPLVVFLGSLFWFWLWGPVGLFLAVPLLSTVRIVCRHLPRYRVVASLLAE” here?
Answer: Its protein production is “failed”.

Question: For “MSAPRLPVTVLTGFLGAGKTTLLSKLLENNKQRRLAILVNEFGEVSIDGGLLRDGENQGVEIHDLANGLVAYDDDADFLPTMLALWQRRQQIDHVLIETSGLALPSAVMAQLQSEALAPYFVLDATLAVVDTPLLLAGHFAPAGDGGKTDAVAALFDQQLGHADIVVLNKIDALSADQLLAAEEAVRKQAPSIRFIELAYEAKLDTRLTLGLHLHEASPAAHRHYGPVASMPGLAMRPLANQTLLDGHSHGGQAAHSHGLATHKHFHEQDPGWQSFMIRSKEPQCADKLAAALQAIAREEPLLRIKGFAACADSPGRLLAQGVRSRIELSRDDTLAAPRQAQLVFIGYHPSRPRVVALLRDITGAHWSLEHHHHHH”, which protein production is on record?
Answer: The protein production was “failed”.
